# Assay results reported in publication PMC8065039.
# Target: CA521^FALA (human IgG4 monoclonal antibody with the F234A/L235A mutation) (human (from human antibody transgenic mice))
# Test: BLI
# Sequence of CA521^FALA (human IgG4 monoclonal antibody with the F234A/L235A mutation) (human (from human antibody transgenic mice)) (heavy, as listed by the source, chain 1 of 2): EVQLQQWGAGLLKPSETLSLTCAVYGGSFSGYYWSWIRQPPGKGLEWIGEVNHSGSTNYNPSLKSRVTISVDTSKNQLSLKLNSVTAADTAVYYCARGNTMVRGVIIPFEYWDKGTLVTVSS
# Sequence of CA521^FALA (human IgG4 monoclonal antibody with the F234A/L235A mutation) (human (from human antibody transgenic mice)) (light, as listed by the source, chain 2 of 2): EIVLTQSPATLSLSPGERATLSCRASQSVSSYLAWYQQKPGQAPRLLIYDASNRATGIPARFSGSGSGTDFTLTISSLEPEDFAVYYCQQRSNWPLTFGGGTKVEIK
substance,measurement,value
"SARS-CoV-2 RBD protein (40592-V05H, Sino Biological) (from UniProt P0DTC2) (domain or fragment)",Kd,0.698 nM
